Results: US6942981
Ends that are not written are not given here. * marks the point of attachment. Biotin = O=C1N[C@H]2[C@H](CS[C@H]2CCCCC(=O)*)N1

T1: GST-NeDLG PDZ domains 1-2 fusion protein (Mus musculus (Mouse), UniProt P70175 147-332)
T1 construct: also called NeDLG1; not shown: glutathione S-transferase (GST) encoded by pGEX-3X
T1 chain: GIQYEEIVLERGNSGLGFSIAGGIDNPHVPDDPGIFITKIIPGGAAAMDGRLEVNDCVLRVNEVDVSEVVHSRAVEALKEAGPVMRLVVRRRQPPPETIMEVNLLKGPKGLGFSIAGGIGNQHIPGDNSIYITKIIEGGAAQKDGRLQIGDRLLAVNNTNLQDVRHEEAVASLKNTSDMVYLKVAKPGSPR

T2: GST-SYN1a (alpha1-syntrophin) PDZ domain fusion protein (Homo sapiens (Human), UniProt Q13424 84-179)
T2 construct: also called SYN 1 α; not shown: glutathione S-transferase (GST) encoded by pGEX-3X
T2 sequence: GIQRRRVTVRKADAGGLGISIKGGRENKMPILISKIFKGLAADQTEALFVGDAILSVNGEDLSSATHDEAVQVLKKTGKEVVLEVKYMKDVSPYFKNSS

T3: GST-TAX2 PDZ domain fusion protein (human, UniProt O14908 129-216)
T3 construct: not shown: glutathione S-transferase (GST) encoded by pGEX-3X
T3 chain: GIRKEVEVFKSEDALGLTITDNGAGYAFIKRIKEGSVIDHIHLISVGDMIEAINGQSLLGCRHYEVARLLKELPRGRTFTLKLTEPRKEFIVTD

T4: GST-MINT3 PDZ domain fusion protein (human)
T4 construct: also called human MINT3; not shown: glutathione S-transferase (GST) encoded by pGEX-3X
T4 chain: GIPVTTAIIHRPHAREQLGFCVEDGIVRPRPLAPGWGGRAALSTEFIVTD

T5: GST-DVL1 PDZ domain fusion protein (human)
T5 construct: also called human dishevelled segment polarity protein homolog; not shown: glutathione S-transferase (GST) encoded by pGEX-3X
T5 chain: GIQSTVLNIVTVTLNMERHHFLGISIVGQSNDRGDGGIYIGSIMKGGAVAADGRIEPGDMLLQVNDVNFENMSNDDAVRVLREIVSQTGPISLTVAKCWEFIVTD

T6: GST-LIMK2 PDZ domain fusion protein (human, UniProt P53671 147-237)
T6 construct: also called human LIM domain kinase 2; not shown: glutathione S-transferase (GST) encoded by pGEX-3X
T6 sequence: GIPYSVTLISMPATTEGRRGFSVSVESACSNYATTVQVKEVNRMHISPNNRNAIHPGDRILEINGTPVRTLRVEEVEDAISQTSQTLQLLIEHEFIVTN

T7: GST-MPP2 PDZ domain fusion protein
T7 construct: also called maguk p55 subfamily member 2 (DLG2); MMP2; not shown: glutathione S-transferase (GST) encoded by pGEX-3X
T7 chain: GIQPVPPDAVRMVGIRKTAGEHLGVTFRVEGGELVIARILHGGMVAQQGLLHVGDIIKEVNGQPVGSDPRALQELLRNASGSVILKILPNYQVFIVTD


Legend:
[1] = target: T1, GST-NeDLG PDZ domains 1-2 fusion protein; test: A/G assays
[2] = target: T2, GST-SYN1a (alpha1-syntrophin) PDZ …; test: A/G assays
[3] = target: T3, GST-TAX2 PDZ domain fusion protein; test: A/G assays
[4] = target: T4, GST-MINT3 PDZ domain fusion protein; test: A/G assays
[5] = target: T5, GST-DVL1 PDZ domain fusion protein; test: A/G assays
[6] = target: T6, GST-LIMK2 PDZ domain fusion protein; test: A/G assays
[7] = target: T7, GST-MPP2 PDZ domain fusion protein; test: A/G assays
[8] = target: T1, GST-NeDLG PDZ domains 1-2 fusion protein; test: G assay
[9] = target: T1, GST-NeDLG PDZ domains 1-2 fusion protein; test: A assay

Binder | binding result [1] | binding result [2] | binding result [3] | binding result [4] | binding result [5] | binding result [6] | binding result [7] | binding result [8] | binding result [9]
Biotin-YSATYSELEDPGEMSPPIDL (also called FceRlb; FcεRβI) [FceRIb C-terminal peptide AA25L] | no binding | no binding | no binding | no binding | no binding | no binding | no binding |  | 
Biotin-EVICYIEKPGVETLEDSVF [CDW125 (IL5R) C-terminal peptide AA28L] | no binding | no binding | no binding | no binding | no binding | no binding | no binding |  | 
Biotin-KKGTYLTDETHREVKFTSL [CD46 (form 1) C-terminal peptide AA10L] |  | no binding | no binding | no binding | no binding | no binding | no binding | binds | 
Biotin-PSWRRSSLSESENATSLTTF [BLR-1 C-terminal peptide AA45L] | no binding | no binding | no binding | no binding | no binding | no binding | no binding |  | 
Biotin-DTPSSSYTQSTMDHDLHDAL [CC CKR-4 C-terminal peptide AA44L] | no binding | no binding | no binding | no binding | no binding | no binding | no binding |  | 
Biotin-SMQPDNSSDSDYDLHGAQRL [CD5 C-terminal peptide AA49L] | no binding | no binding | no binding | no binding | no binding | no binding | no binding |  | 
Biotin-TSGTGHNQTRALRASESGI [CD97 (CD55L) C-terminal peptide AA14L] | no binding | no binding | no binding | no binding | no binding | no binding | no binding |  | 
Biotin-SSKSKSSEESQTFFGLYKL (not fully specified) [FasLigand C-terminal peptide AA23L-M] | no binding | no binding | no binding | no binding | no binding | no binding | no binding |  | 
Biotin-SPQPDSTDNDDYDDISAA [CD6 C-terminal peptide AA6L] | no binding | no binding | no binding | no binding | no binding | no binding | no binding |  | 
Biotin-GKGKSIGRAPEASLQDKEGA [CC CKR-2 C-terminal peptide AA42L] | no binding | no binding | no binding | no binding | no binding | no binding | no binding |  | 
Biotin-SVFSIPTLWSPWPPSSSSQL (also called CD3-η) [CD3n C-terminal peptide AA4L] | no binding | no binding | no binding | no binding | no binding | no binding | no binding |  | 
Biotin-DLGNMEENKKLEENNHKTEA [CD166 (CD6L) C-terminal peptide AA20L] | no binding | no binding | no binding | no binding | no binding | no binding | no binding |  | 
Biotin-SSSQSLESDGSYQKPSYIL [CD62E C-terminal peptide AA48L] | no binding | no binding | no binding | no binding | no binding | no binding | no binding |  | 
Biotin-CAISGTSSDRGYGSPRYAEV [CLASP-4 C-terminal peptide AA3L-V] |  | no binding | no binding | no binding | no binding | no binding | no binding |  | 
Biotin-ENLAPVTTFGKTNGYIA [CD148 (DEP-1) C-terminal peptide AA19L (ending GYIA)] | no binding | no binding | no binding | no binding | no binding | no binding | no binding |  | 
Biotin-HKAEIHAQPSDKERLTSDA [CD49F (Aform, alpha6) C-terminal peptide AA12L] | no binding | no binding | no binding | no binding | no binding | no binding | no binding |  | 
Biotin-VTSPNKHLGLVTPHKTELV [CD83 C-terminal peptide AA47L] |  | no binding | no binding | no binding | no binding | no binding | no binding |  | binds
Biotin-PYGTAMEKAQLKPPATSDA [CD49E (alpha-4) C-terminal peptide AA11L] | no binding | no binding | no binding | no binding | no binding | no binding | no binding |  | 
Biotin-LERTSSVSPSTAEPELSIVF [CC CKR-3 C-terminal peptide AA43L] | no binding | no binding | no binding | no binding | no binding | no binding | no binding |  | 
Biotin-LERVSSTSPSTGEHELSAGF [CC CKR-1R C-terminal peptide AA41L] | no binding | no binding | no binding | no binding | no binding | no binding | no binding |  | 
